Test results published in US20220135687A1 (NANJING LEGEND BIOTECH, published 2022).
Where two headings read alike, the source gives them in different places.

Experiments:
[1] = target: T1, human PD-L1 expressed on CHO-K1 cells (Genscript, Cat #M00543) (human, UniProt Q9NZQ7 19-290); assay: FACS competition vs biotin-PD-1-Fc on CHO-K1/human PD-L1 cells
T1 construct: also called PD-L1 cell line
Method: A series of diluted mouse mAbs (concentration starting from 900 nM, 3 fold dilution, 50 μl per well) were added afterwards. The mixture was incubated at 4° C. for 30 minutes, washed twice with wash buffer, followed by the addition of PEcy5/streptavidin (1 μg/ml, 150 μl/well). The plates were again incubated at 4° C. for 30 minutes before the cells in each well were analyzed by FACSCalibur (BD Bioscience, San Jose, Calif.) and Flowjo software.

[2] = target: T1, human PD-L1 expressed on CHO-K1 cells …; assay: FACS, CHO-K1/human PD-L1 cells
Method: PD-L1 stable cell line binding activity assessment of 12 mouse mAbs was carried out using FACS. CHO-K1 cells expressing human PD-L1 (Genscript, Cat #M00543) were dissociated from adherent culture flasks and mixed with varying concentrations of antibodies. The antibody and cells were incubated for 30 minutes at room temperature, washed three times with FACS buffer (PBS containing 1% BSA). PE-labeled goat anti-mouse IgG (minimal x-reactivity) secondary antibody (BioLegend, Cat #405307) was added and incubated at room temperature for 15 minutes. Cells were washed again with FACS buffer and analyzed by FACSCalibur (BD Bioscience, San Jose, Calif.) and Flowjo software. Data were analyzed with Prism 6 (GraphPad Software, San Diego, Calif.) using non-linear regression, and EC₅₀ values were calculated (FIGS. 2A-2L and Table 3).

[3] = target: T2, His-tagged PD-L1 ECD protein (ACROBiosystems) (human, UniProt Q9NZQ7 19-238); assay: SPR, supernatant IgG captured, PD-L1-His analyte
T2 construct: Bought protein; also called PD-L1-His; PD-L1/His; not shown: His tag

[4] = target: T2, His-tagged PD-L1 ECD protein …; assay: SPR, supernatant IgG captured, PD-L1-His analyte; remark: listed apart in the source

T2 sequence (Q9NZQ7 19-238): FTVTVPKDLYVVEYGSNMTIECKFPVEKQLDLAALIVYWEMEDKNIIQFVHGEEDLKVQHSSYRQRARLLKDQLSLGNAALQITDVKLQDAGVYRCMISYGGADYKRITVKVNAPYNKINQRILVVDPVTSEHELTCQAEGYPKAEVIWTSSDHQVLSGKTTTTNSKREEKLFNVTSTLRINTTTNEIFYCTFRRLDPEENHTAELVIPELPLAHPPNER
T1 sequence (Q9NZQ7 19-290, one chain of several): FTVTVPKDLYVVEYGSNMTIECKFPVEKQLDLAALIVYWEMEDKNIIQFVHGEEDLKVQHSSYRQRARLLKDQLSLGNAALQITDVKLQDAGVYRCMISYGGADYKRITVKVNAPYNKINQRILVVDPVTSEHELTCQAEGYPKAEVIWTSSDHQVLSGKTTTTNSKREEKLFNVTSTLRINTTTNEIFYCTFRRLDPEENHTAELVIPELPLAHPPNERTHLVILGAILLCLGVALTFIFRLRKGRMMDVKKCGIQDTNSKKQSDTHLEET

| IC50 [1] | EC50 [2] | Top (best-fit value) [2] | Kd [3] | koff [3] | kon [3] | other results | Binder |
| --- | --- | --- | --- | --- | --- | --- | --- |
| 4.43 nM | 6.12 nM | 1720 | – | – | – | – | 30A7B5D9 (antibody, V domains shown, Mouse mAb from hybridoma culture) VH: KVQLQQSGAELVKPGTSVKLSCKASGYTFTEYIIYWIKQRSGQGLEWIGWFYPGTGSIKYNEKFKDKATLTADKSSSTVFMELSRLTSEDSAVYFCARHEEGNLWFAYWGQGTLVTVSA VL: QIVLTQSPALMSASPGERVTMTCSASSDVSYMYWYQQKPRSSPKPWIYLTSNLASGVPARFSGSGSGTSYSLTISSMEAEDAATYYCQQWTGNPLTFGAGTKLELK |
| – | – | – | 0.29 nM | 0.00015 s⁻¹ | 530000 M⁻¹ s⁻¹ | – | 29A8_VH-VL.M1 (antibody, human IgG1, kappa, N297A, V domains shown, human IgG1 effector-less Fc, kappa) VH: DVQLQGSGPGLVKPSQSLSLTCTVTGYSITSDFAWDWIRQFPGNKLEWMGHIRFSGTTSYNPSLKSRISITRDTSKNQFFLQLNSVTSEDTATYYCARSTLITKGFFDYWGQGTTLTVSS VL: DIVMTQSHKFMSTSVGGRVSITCRASQDVSPAVAWYQQKPGQSPKLLIYWASTRHTGVPDRFTGSGSGTDFTLTISSVQTEDLALYYCQQHYSTPWTFGGGTKLEIKR |
| 11.8 nM | 12.3 nM | 1760 | – | – | – | – | 1H1G4D9 (antibody, V domains shown, Mouse mAb from hybridoma culture) VH: EGQLQQSGAELVKPGASVILSCTASGFNIKDTYIHWLNQRPEQGLEWIGRIEPANGNTKYDPTFQGKATITADTSSNTAYLQLTSLTSEDTAVYYCSRGGIYYYGSHWYFDVWGAGTLVTVSS VL: DVLMTQTPLSLPVSLGDQASISCRSSQNIVYSDGDTYLEWYLQKPGQSPKLLIFKVSNRFSGVPDRFSGSGSGTDFTLKISRVEAEDLGVYYCFQGSHVPFTFGSGTKLEIK |
| 13.8 nM | 18.1 nM | 1750 | – | – | – | – | 25G1F9F8 (antibody, V domains shown, Mouse mAb from hybridoma culture) VH: EGQLQQSGAELVKPGASVNLSCTASGFNIKDTYIHWVKQRPDQGLEWIGRIAPTNGNAKFHPTFQGKATITADTSSNTAYLQLSSLTSEDTAVYYCTRGGIYYYGTHWYFDVWGAGTTVTVSS VL: DVLMNQTPLSLPVSLGDQASISCRSSQNIVYSDGNTYLEWYLQKPGQSPKLLIFQVSNRFSGVPDRFSGSGSGTDFTLKISRVEAEDLGFYYCFQGSHVPFTFGSGTKLEIK |
| 8.35 nM | 11.1 nM | 1640 | – | – | – | – | 30A6B2D9 (antibody, V domains shown, Mouse mAb from hybridoma culture) VH: EGQLQQSGAGLVKPGASVNLSCTASGFNIKDTYIHWMKQRPEQGLEWIGRIAPTNGNTKYDPTFQGKATITADSSSNTAYLQVSSLTSEDTAVYYCSRGGIYYYGSHWYFDVWGAGTTVTVSS VL: SVLMTQTPLSLPVSLGDQASISCRSSQNIVYSDGDTYLEWYLQKPGQSPKLLIFKVSNRFFGVPDRFSGSGSGTDFTLKINRVEAEDLGVYYCFQGSHVPFTFGSGTKLEIK |
| – | – | – | – | – | – | Kd [4]: 1.3 nM; koff [4]: 0.00061 s⁻¹; kon [4]: 470000 M⁻¹ s⁻¹ | 29A8_VH2-VL1.M1 (antibody, human IgG1, kappa, N297A, V domains shown, Humanized, hIgG1 effector-less Fc, kappa; see recheck on K24R in the .M1 light chain) VH: EVQLQESGPGLVKPSETLSLTCTVSGYSITSDFAWDWIRQFPGKGLEWMGHIRFSGTTSYNPSLKSRITISVDTSKNQFSLKLSSVTAADTAVYYCARSTLITKGFFDYWGQGTLVTVSS VL: DIQMTQSPSSLSASVGDRVTITCRASQDVSPAVAWYQQKPGKAPKLLIYWASTRHTGVPSRFSGSGSGTDFTLTISSLQPEDFATYYCQQHYSTPWTFGQGTKVEIKR |
| – | – | – | – | – | – | Kd [4]: 1.1 nM; koff [4]: 0.00051 s⁻¹; kon [4]: 480000 M⁻¹ s⁻¹ | 29A8_VH3-VL1.M1 (antibody, human IgG1, kappa, N297A, V domains shown, Humanized, hIgG1 effector-less Fc, kappa; see recheck on K24R in the .M1 light chain) VH: EVQLQESGPGLVKPSETLSLTCTVSGYSITSDFAWDWIRQFPGKGLEWMGHIRFSGTTSYNPSLKSRITISVDTSKNQFFLKLSSVTAADTATYYCARSTLITKGFFDYWGQGTLLTVSS VL: DIQMTQSPSSLSASVGDRVTITCRASQDVSPAVAWYQQKPGKAPKLLIYWASTRHTGVPSRFSGSGSGTDFTLTISSLQPEDFATYYCQQHYSTPWTFGQGTKVEIKR |
| – | 4.5 nM | 1410 | – | – | – | – | 25B6E5D8 (antibody, V domains shown, Mouse mAb from hybridoma culture) VH: QFQLQQSGAELVRPGSSVKISCKASGYEFSSNWMNWVKQRPGQSLEWIGQIWPGDGDTNYNGKFRGKATLTSDKSSSTAYMQLNSLTSEDSAVYFCARGRASFYFDYWGQGTALTVSS VL: DIVLTQSPASLAVSLGQRATISCRASESVDDYGNSFMHWYQQKPGQPPKLLIYRASNLESGIPVRFSGSGSRTDFTLTINPVEADDVATYYCQQSNEDPHTFGGGTKLEIK |
| – | – | – | 0.76 nM | 0.0002 s⁻¹ | 260000 M⁻¹ s⁻¹ | – | 53C1_VH-VL.M1 (antibody, human IgG1, kappa, N297A, V domains shown, Chimeric mutant, VL K24R in the entry; human IgG1 effector-less Fc, kappa) VH: QVQLQQSGNELARPGASVRLSCKASGYIFTGYGITWVRQRPGQGLEWIGEIFPRRVNTYYSEKFKGRATLTADISSSTAYMELRSLTSEDSAVYFCARDYDPYFALDYWGQGTSVTVSS VL: DIVMTQSHKFMSTSVGDRVSITCRASQDVSTAVDWYQQKPGQSPKLLIYSASYRYTGVPDRFTGSGSGTAFTFTISGEQAEDLAVYYCQQHYSIPFTFGGGTKLEIKR |
| – | – | – | 0.86 nM | 0.0002 s⁻¹ | 240000 M⁻¹ s⁻¹ | – | 53C1_VH.M1-VL.M1 (antibody, human IgG1, kappa, N297A, V domains shown, Chimeric mutant (VH N57S, VL K24R in the entries); human IgG1 effector-less Fc, kappa) VH: QVQLQQSGNELARPGASVRLSCKASGYIFTGYGITWVRQRPGQGLEWIGEIFPRRVSTYYSEKFKGRATLTADISSSTAYMELRSLTSEDSAVYFCARDYDPYFALDYWGQGTSVTVSS VL: DIVMTQSHKFMSTSVGDRVSITCRASQDVSTAVDWYQQKPGQSPKLLIYSASYRYTGVPDRFTGSGSGTAFTFTISGEQAEDLAVYYCQQHYSIPFTFGGGTKLEIKR |
| – | – | – | 0.87 nM | 0.00021 s⁻¹ | 240000 M⁻¹ s⁻¹ | – | 53C1_VH.M1-VL (antibody, human IgG1, kappa, N297A, V domains shown, Chimeric mutant, VH N57S in the entry; human IgG1 effector-less Fc, kappa) VH: QVQLQQSGNELARPGASVRLSCKASGYIFTGYGITWVRQRPGQGLEWIGEIFPRRVSTYYSEKFKGRATLTADISSSTAYMELRSLTSEDSAVYFCARDYDPYFALDYWGQGTSVTVSS VL: DIVMTQSHKFMSTSVGDRVSITCKASQDVSTAVDWYQQKPGQSPKLLIYSASYRYTGVPDRFTGSGSGTAFTFTISGEQAEDLAVYYCQQHYSIPFTFGGGTKLEIKR |
| – | – | – | 0.94 nM | 0.00018 s⁻¹ | 200000 M⁻¹ s⁻¹ | – | 53C1_VH.M2-VL.M1 (antibody, human IgG1, kappa, N297A, V domains shown, Chimeric mutant (VH N57A, VL K24R in the entries); human IgG1 effector-less Fc, kappa) VH: QVQLQQSGNELARPGASVRLSCKASGYIFTGYGITWVRQRPGQGLEWIGEIFPRRVATYYSEKFKGRATLTADISSSTAYMELRSLTSEDSAVYFCARDYDPYFALDYWGQGTSVTVSS VL: DIVMTQSHKFMSTSVGDRVSITCRASQDVSTAVDWYQQKPGQSPKLLIYSASYRYTGVPDRFTGSGSGTAFTFTISGEQAEDLAVYYCQQHYSIPFTFGGGTKLEIKR |
| – | – | – | 0.81 nM | 0.00016 s⁻¹ | 200000 M⁻¹ s⁻¹ | – | 53C1_VH.M2-VL (antibody, human IgG1, kappa, N297A, V domains shown, Chimeric mutant, VH N57A in the entry; human IgG1 effector-less Fc, kappa) VH: QVQLQQSGNELARPGASVRLSCKASGYIFTGYGITWVRQRPGQGLEWIGEIFPRRVATYYSEKFKGRATLTADISSSTAYMELRSLTSEDSAVYFCARDYDPYFALDYWGQGTSVTVSS VL: DIVMTQSHKFMSTSVGDRVSITCKASQDVSTAVDWYQQKPGQSPKLLIYSASYRYTGVPDRFTGSGSGTAFTFTISGEQAEDLAVYYCQQHYSIPFTFGGGTKLEIKR |
| – | – | – | 0.56 nM | 0.00014 s⁻¹ | 260000 M⁻¹ s⁻¹ | – | 53C1_VH.M3-VL.M1 (antibody, human IgG1, kappa, N297A, V domains shown, Chimeric mutant (VH N57Q, VL K24R in the entries); human IgG1 effector-less Fc, kappa) VH: QVQLQQSGNELARPGASVRLSCKASGYIFTGYGITWVRQRPGQGLEWIGEIFPRRVQTYYSEKFKGRATLTADISSSTAYMELRSLTSEDSAVYFCARDYDPYFALDYWGQGTSVTVSS VL: DIVMTQSHKFMSTSVGDRVSITCRASQDVSTAVDWYQQKPGQSPKLLIYSASYRYTGVPDRFTGSGSGTAFTFTISGEQAEDLAVYYCQQHYSIPFTFGGGTKLEIKR |
| – | – | – | 0.53 nM | 0.00014 s⁻¹ | 260000 M⁻¹ s⁻¹ | – | 53C1_VH.M3-VL (antibody, human IgG1, kappa, N297A, V domains shown, Chimeric mutant, VH N57Q in the entry; human IgG1 effector-less Fc, kappa) VH: QVQLQQSGNELARPGASVRLSCKASGYIFTGYGITWVRQRPGQGLEWIGEIFPRRVQTYYSEKFKGRATLTADISSSTAYMELRSLTSEDSAVYFCARDYDPYFALDYWGQGTSVTVSS VL: DIVMTQSHKFMSTSVGDRVSITCKASQDVSTAVDWYQQKPGQSPKLLIYSASYRYTGVPDRFTGSGSGTAFTFTISGEQAEDLAVYYCQQHYSIPFTFGGGTKLEIKR |
| 3.79 nM | 9.37 nM | 1960 | – | – | – | – | 21D1F4D4 (antibody, V domains shown, Mouse mAb from hybridoma culture) VH: QVQLQQPGAEVVRPGASVKLSCKASGYTFTNYWISWVKQRPGQGLEWIGNIYPSDSYTNYNQNFKDKATLTVDKSSSTAYMQLSSPTSEDSAVYYCTTGIITVIATRDDYWGQGTTLTVSS VL: QIVLTQSPAIMSASPGEKVTLTCSASSSVSSSYLYWYQQKPGSSPKLWIYSTSNLASGVPARFSGSGSGTSYSLTVSSMEAEDAASYFCHQWSSYPFTFGSGTKLEIK |
| 2.89 nM | 3.29 nM | 1780 | – | – | – | – | 42G2D7C3 (antibody, V domains shown, Mouse mAb from hybridoma culture) VH: DVQLLESGPGLVKPSQSLSLTCSVTGYSITSGYYWNWIRQFPGNNLEWMGSINYDGSNDYNPSLQDRISITRDTSKNQFFLKLNSVTTEDTATYYCARRLDYWGQGTTLIVSS VL: QIVLTQSPAIMSASPGEKVTISCSASSFINYMYWYQQKPGSSPKPWILRTSTLASGVPARFSGSGSGTSYSLTISSMEAEDAATYYCQQYHSYPLTFGAGTKLELK |
